“Also recorded” adds a separate entry of the source.

Experimental findings from patent US10435456B2, “Compositions and methods for increasing the expression and signalling of proteins on cell surfaces” (THE JOHNS HOPKINS UNIVERSITY, priority 2014, dated 2019) are described below.

In one assay the target is T1, mOREG (Mus musculus, UniProt Q920P2).
T1 construct: The mOR-EG full-length construct, containing N-terminal Flag/Rho tags, was a kind gift from Kazushige Touhara; only in the L-EG and L-R-EG constructs) (N, cleaved yes); expressed in transfected cells; host or cells: HEK293T
T1 sequence (Q920P2 1-313): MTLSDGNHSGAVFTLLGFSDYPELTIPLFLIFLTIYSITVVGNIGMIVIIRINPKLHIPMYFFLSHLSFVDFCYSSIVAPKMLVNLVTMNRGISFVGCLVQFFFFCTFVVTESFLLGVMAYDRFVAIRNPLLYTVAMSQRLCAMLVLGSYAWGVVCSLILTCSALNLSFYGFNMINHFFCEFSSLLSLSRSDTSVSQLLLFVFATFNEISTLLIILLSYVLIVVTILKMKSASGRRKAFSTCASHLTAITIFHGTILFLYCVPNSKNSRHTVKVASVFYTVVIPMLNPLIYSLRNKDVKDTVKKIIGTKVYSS
The experiment in a line: CRE luciferase reporter assay (Firefly:Renilla), mOREG constructs. Type of assay: cell-based, murine. To be noted: Rho-mOREG, Lucy-mOREG, no RTP1S, 100-300 μM eugenol. How it is done: The luciferase assay was performed as previously described. Briefly, ORs were transfected into HEK293T cells along with constructs encoding for CREB-dependent luciferase (Firefly) and a constitutively expressed luciferase (Renilla). OR activation leads to a rise in cAMP which drives an increase in Firefly luciferase expression. Firefly activity is normalized to the activity of the Renilla luciferase to control for variation in cell number and transfection efficiency. Data were collected using a FLUOstar Omega automated platereader (BMG LabTech, Cary, N.C.). For some experiments, RTP1S was also transfected.
As mOREG is one of the ORs that reach the cell surface under every condition tested, we expressed the OR with and without the Lucy and Rho tags and assessed its response to eugenol.

The next assay has as its target T2, Olfr691 (Mus musculus, UniProt Q8VGW5).
T2 sequence (Q8VGW5 1-322): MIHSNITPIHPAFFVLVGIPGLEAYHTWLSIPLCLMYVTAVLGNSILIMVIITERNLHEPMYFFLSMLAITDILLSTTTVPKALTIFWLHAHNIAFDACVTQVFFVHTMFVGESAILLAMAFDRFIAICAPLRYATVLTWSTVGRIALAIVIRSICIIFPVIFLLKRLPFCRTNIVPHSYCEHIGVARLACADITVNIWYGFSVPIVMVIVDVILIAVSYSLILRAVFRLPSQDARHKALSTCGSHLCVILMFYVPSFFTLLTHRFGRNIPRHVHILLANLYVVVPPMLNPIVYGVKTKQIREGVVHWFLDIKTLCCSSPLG
Briefly: CRE luciferase reporter assay (Firefly:Renilla), Olfr691 constructs. To be noted: 0.1-5 mM isovaleric acid.

The test system of another assay is human GPR160. The experiment in a line: Surface expression of human GPR160. The assay is classed as cell-based. The conditions noted are these: HEK293T cells.
The test system of a further assay is murine Gpr160. Briefly: Surface expression of murine Gpr160. To be noted: HEK293T cells. Type of assay: cell-based.
A further assay relates to HEK293T cells. Briefly: Surface immunocytochemistry of Flag-tagged olfactory receptor constructs. To be noted: for OR surface expression (trafficking): HEK293T. Type of assay: cell-based. Set-up: key to OR surface expression (trafficking): −: No detectable OR surface expression; +: OR surface expression detected in the majority of fields of view (>90% of all fields of view); *: OR surface expression detected in a minority of fields of view (<50% of all fields of view). How it is done:
HEK293T cells were seeded onto 18-mm coverslips coated with poly-L-lysine and transfected with OR constructs with or without accessory proteins (Lipofectamine 2000, Invitrogen). Flag-tagged OR trafficking was assayed using surface immunocytochemistry, as previously described. Briefly, live, non-permeabilized cells at 4° C. were exposed to a rabbit polyclonal anti-Flag antibody in PBS with 0.1% BSA. Subsequently, cells were washed, fixed with 4% paraformaldehyde, permeabilized (0.3% Triton X-100) and then exposed to a mouse monoclonal (M2) anti-Flag antibody. As the external Flag epitope (surface Flag) epitope is ‘blocked’ after binding to the polyclonal Flag antibody, the monoclonal Flag antibody detects only the internal population of ORs. […] Fluorescent secondary antibodies reported the localization of the polyclonal and monoclonal Flag-tags. Cells were visualized for epifluorescence using a Zeiss Axiophot microscope (Thornwood, N.Y.). Images were taken with a CoolSnap Digita Camera (Photometrics, Tucson, Ariz.) and IP Labs software (Biovision, Exton, Pa.). For some experiments, a total of 0.8 μg of accessory plasmids (pcDNA3-RTP1S (modified from RTP1L, kind gift from S. Firestein, Columbia Univ.), pCMV Sport6-Ric8b (purchased from Open Biosystems), and pcDNA3.1-Gαolf (subcloned from a pGEMHE2 Gαolf construct, kind gift from S. Firestein, Columbia Univ.)) or 0.8 μg of an empty pcDNA4.1 vector (OR alone) were co-transfected along with 0.8 μg of the OR. In FIGS. 1 and 2, the immunofluorescent images shown in each row (OR, Rho-OR, Lucy-OR and Lucy-Rho-OR with and without accessory proteins) were transfected and processed simultaneously and image exposures remained constant for each OR. Images represent representative fields of view from at least 4 independent experiments. To assess OR surface expression, the entirety of each coverslip was systematically scanned and scored based on detectable surface immunofluorescence. A ‘+’ was scored for those ORs whose surface expression was detectable in >90% of all fields of view while ORs received an ‘*’ if surface expression was found in <50% of all fields of view. A complete lack of detectable surface expression was scored as a ‘−’. To quantitate cell surface expression using ImageJ (FIG. 14), the background was subtracted from the surface labeled Olfr691 images and the mean fluorescence intensity was measured. The mean intensity was normalized to the mean intensity of the corresponding binary nuclear image, to control for cell number.
ORs were cloned and co-expressed in HEK293T cells without Rho or Lucy tags (OR), with a Rho tag (Rho-OR), with the Lucy tag (Lucy-OR) or with both the Lucy and Rho tags (Lucy-Rho-OR) along with (or without) the chaperone proteins, RTP1S, Ric8b and Gαolf. The cells were then surface labeled with a Flag antibody to detect membrane-associated OR. Images were taken for each OR at equal exposure for all conditions. To assess OR surface expression, the entirety of each coverslip was systematically scanned and scored based on detectable surface immunofluorescence. A ‘+’ was scored for those ORs whose surface expression was detectable in >90% of all fields of view while ORs received an ‘*’ if surface expression was found in <50% of all fields of view. A complete lack of detectable surface expression was scored as a ‘−’.
Many ORs remain orphan receptors due to their inability to traffic in in vitro assays. To establish the trafficking ability of a varied group of ORs, we cloned 15 diverse ORs, the majority of which are orphan receptors which have not been previously reported to reach the cell surface. Live, non-permeabilized HEK 293T cells were surface labeled with a Flag antibody to detect membrane associated receptor and OR surface expression was scored based on detectable surface immunofluorescence. […]

The mark [1] stands for this setting: column 1: OR (Flag tag only, no Rho or Lucy tag), chaperones none.
Setting [2] is: column 2: OR (Flag tag only), with RTP1S, Ric8b, Gαolf.
[3] abbreviates: column 3: Rho-OR, chaperones none.
[4] abbreviates: column 4: Rho-OR, with RTP1S, Ric8b, Gαolf.
The mark [5] stands for this setting: column 5: Lucy-OR, chaperones none.
The mark [6] stands for this setting: column 6: Lucy-OR, with RTP1S, Ric8b, Gαolf.
[7] abbreviates: column 7: Lucy-Rho-OR, chaperones none.
Setting [8] is: column 8: Lucy-Rho-OR, with RTP1S, Ric8b, Gαolf.

Regarding `C=CCc1ccc(O)c(OC)c1` [eugenol], the “OR activation (Firefly:Renilla ratio)” value on mOREG was “dose-dependent activation; also recorded: significantly activated”.
Regarding `CC(C)CC(=O)O` [isovaleric acid], the “OR activation (Firefly:Renilla ratio)” value on Olfr691 (Lucy-Rho-Olfr691 with and without RTP1S) is on record as “responded to isovaleric acid in a dose-dependent manner”; on Olfr691 (Rho-Olfr691 co-expressed with RTP1S) it was “dose-dependent increase in the Firefly: Renilla ratio”; on Olfr691 (Rho-Olfr691 without RTP1S) it was “not significantly activated at any concentration; also recorded: no concentrations of isovaleric acid activated R-691”.
Turning to “Lucy tag: 17-amino acid cleavable signal peptide from LRRC32, MRPQILLLLALLTLGLA (SEQ ID NO:3) (Amino acid sequence of Lucy tag)”, in the assay on human GPR160, the “surface expression of human GPR160” value was “promotes surface expression”. Further, the “surface expression of murine Gpr160” value with murine Gpr160 is on record as “promotes surface expression”.

B1: hOR51E2: human olfactory receptor, Flag-tagged construct (protein, UniProt Q9H255 1-320, looked up)
Olfactory receptor 51E2: MSSCNFTHATFVLIGIPGLEKAHFWVGFPLLSMYVVAMFGNCIVVFIVRTERSLHAPMYLFLCMLAAIDLALSTSTMPKILALFWFDSREISFEACLTQMFFIHALSAIESTILLAMAFDRYVAICHPLRHAAVLNNTVTAQIGIVAVVRGSLFFFPLPLLIKRLAFCHSNVLSHSYCVHQDVMKLAYADTLPNVVYGLTAILLVMGVDVMFISLSYFLIIRTVLQLPSKSERAKAFGTCVSHIGVVLAFYVPLIGLSVVHRFGNSLHPIVRVVMGDIYLLLPPVINPIIYGAKTKQIRTRVLAMFKISCDKDLQAVGGK
modifications: Flag tag
notes: human olfactory receptor, Flag-tagged construct
Take B1: the “OR surface expression (trafficking)” value in the assay on HEK293T cells (setting [1]), in the assay on HEK293T cells (setting [2]), with HEK293T cells (setting [3]), with HEK293T cells (setting [4]), with HEK293T cells (setting [5]) and in the assay on HEK293T cells (setting [6]) was “+ (OR surface expression detected in the majority of fields of view (>90% of all fields of view))” in each case. The “OR surface expression (trafficking)” value with HEK293T cells (setting [7]) and with HEK293T cells (setting [8]) was “+ (OR surface expression detected in the majority of fields of view (>90% of all fields of view))” each time.

B2: hOR52B2: human homologue of Olfr691, Flag-tagged construct (protein, UniProt Q96RD2 1-323, looked up)
Olfactory receptor 52B2: MSHTNVTIFHPAVFVLPGIPGLEAYHIWLSIPLCLIYITAVLGNSILIVVIVMERNLHVPMYFFLSMLAVMDILLSTTTVPKALAIFWLQAHNIAFDACVTQGFFVHMMFVGESAILLAMAFDRFVAICAPLRYTTVLTWPVVGRIALAVITRSFCIIFPVIFLLKRLPFCLTNIVPHSYCEHIGVARLACADITVNIWYGFSVPIVMVILDVILIAVSYSLILRAVFRLPSQDARHKALSTCGSHLCVILMFYVPSFFTLLTHHFGRNIPQHVHILLANLYVAVPPMLNPIVYGVKTKQIREGVAHRFFDIKTWCCTSPLGS
modifications: Flag tag
notes: human homologue of Olfr691, Flag-tagged construct
With B2, the “OR surface expression (trafficking)” value in the assay on HEK293T cells (setting [1]) was “−”; in the assay with HEK293T cells (setting [2]) it was “−”; in the assay on HEK293T cells (setting [3]), “−”; with HEK293T cells (setting [4]), “−”; in the assay on HEK293T cells (setting [5]) it was “+ (OR surface expression detected in the majority of fields of view (>90% of all fields of view))”; in the assay on HEK293T cells (setting [6]) it was “+ (OR surface expression detected in the majority of fields of view (>90% of all fields of view))”. Further, the “OR surface expression (trafficking)” value with HEK293T cells (setting [7]) and in the assay on HEK293T cells (setting [8]) was “+ (OR surface expression detected in the majority of fields of view (>90% of all fields of view))” in each case. For the same molecule, in the assay with HEK293T cells (no accessory proteins, 24 h transfection), the “surface trafficking, Rho-tagged vs Lucy-Rho-tagged OR, in words” value is on record as “traffic to the surface with but not without the Lucy tag”.
